Test results: US20210269480A1 (published 2021)
*1 amine or outer side, *2 acyl side, *3 side chain or, on linkers, in order; H or OH if unused. Bridges are numbered along the chain shown (N, C = ends). Where no end group is shown, it is not given here. [ ]: non-standard residue; d: D form. TATA = O=C(CC[*:1])N1CN(C(=O)CC[*:2])CN(C(=O)CC[*:3])C1; 1Nal = N[C@@H](Cc1cccc2ccccc12)C(=O)O; Cya = N[C@@H](CS(=O)(=O)O)C(=O)O; Hyp = O=C(O)[C@@H]1C[C@@H](O)CN1; dCya = N[C@H](CS(=O)(=O)O)C(=O)O; hArg = N=C(N)NCCCC[C@H](N)C(=O)O; Agb = N=C(N)NCC[C@H](N)C(=O)O; βAla = NCCC(=O)O; Sar = CNCC(=O)O

Target: T1, human Nectin-4 (human, UniProt Q96NY8 32-349)
T1 construct: a Gly32-Ser349 FLAG construct is described only under the SPR assay; also called PVRL4
T1 sequence (looked up): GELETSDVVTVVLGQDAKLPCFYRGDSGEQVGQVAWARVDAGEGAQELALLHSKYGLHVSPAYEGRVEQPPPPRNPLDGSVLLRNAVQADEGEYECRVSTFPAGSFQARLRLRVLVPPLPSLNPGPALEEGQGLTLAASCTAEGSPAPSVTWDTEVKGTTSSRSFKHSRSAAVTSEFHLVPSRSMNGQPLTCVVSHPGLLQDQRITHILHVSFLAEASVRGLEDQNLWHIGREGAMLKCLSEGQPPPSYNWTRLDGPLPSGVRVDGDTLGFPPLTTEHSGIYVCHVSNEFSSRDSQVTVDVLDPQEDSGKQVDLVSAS
Assay: FP competition, tracer SEQ ID NO 217
Protocol: Peptides were diluted to an appropriate concentration in assay buffer as described in the direct binding assay with a maximum of 5% DMSO, then serially diluted 1 in 2. […] Measurements were conducted as for the direct binding assay, however the gain was determined prior to the first measurement. Data analysis was in Systat Sigmaplot version 12.0 where the mP values were fit to a user defined cubic equation to generate a Ki value: […]

Ki [nM]	Binder
47	QKWCAPLSDYWCNRICA (linker 4-12-16 via TATA; not fully specified, also called 80-10-13-T01) [BCY3400]

Target: T1, human Nectin-4
Assay: FP direct binding, fluorescent peptide
Protocol: Affinity of the peptides of the invention for human Nectin-4 (Ki) was determined using a fluorescence polarisation assay, in accordance with the methods disclosed in WO 2016/067035. […] Measurements were conducted on a BMG PHERAstar FS equipped with an “FP 485 520 520” optic module which excites at 485 nm and detects parallel and perpendicular emission at 520 nm. The PHERAstar FS was set at 25° C. with 200 flashes per well and a positioning delay of 0.1 second, with each well measured at 5 to 10 minute intervals for 60 minutes. […] Data was analysed using Systat Sigmaplot version 12.0. mP values were fit to a user defined quadratic equation to generate a Kd value: f=ymin+(ymax−ymin)/Lig*((x+Lig+Kd)/2-sqrt((((x+Lig+Kd)/2)\hat{ }2)-(Lig*x))).

Ki [nM]	Binder
208	ACWPLDSYWCARICA (linker 2-10-14 via TATA; not fully specified, Direct FP used peptides with a fluorescent tag; also called 80-10-00) [BCY488]
72	QKWCAPLSDYWCNRICA (linker 4-12-16 via TATA; not fully specified, also called 80-10-13-T01) [BCY3400]
502	ACVTTSYDCWVRLGQCA (linker 2-9-16 via TATA; not fully specified, Direct FP used peptides with a fluorescent tag; also called 80-11-01) [BCY472]
745	carboxyfluorescein-CPF[dD]CM[hArg]NWSTPIWC (linker 1-5-15 via TATA) [BCY8208]
5	ACPFGCMKNWSWPIWCA (linker 2-6-16 via TATA; not fully specified (N-terminus), also called FI-A-(SQ ID NO: 1)-A) [80-09-02-N006]
269	VDWCAPLDDYWCDRICA (linker 4-12-16 via TATA; not fully specified, Direct FP used peptides with a fluorescent tag; also called 80-10-12-T01) [BCY462]
30	ACVTTSYDCWVTLGHCSRF (linker 2-9-16 via TATA; not fully specified, Direct FP used peptides with a fluorescent tag; also called 80-11-08-T01) [BCY3406]
888	ACVTTSYDCFLHLLGCA (linker 2-9-16 via TATA; not fully specified, Direct FP used peptides with a fluorescent tag; also called 80-11-00) [BCY471]

Target: T2, Human Nectin-4 (residues Gly32-Ser349) with C-terminal FLAG tag, biotinylated (human, UniProt Q96NY8 32-349, randomly biotinylated with EZ-Link Sulfo-NHS-LC-LC-Biotin)
T2 construct: range 32-349; Captured through biotin on a streptavidin CM5 chip in the SPR assay; also called PVRL4; not shown: C-terminal FLAG tag
T2 sequence (looked up): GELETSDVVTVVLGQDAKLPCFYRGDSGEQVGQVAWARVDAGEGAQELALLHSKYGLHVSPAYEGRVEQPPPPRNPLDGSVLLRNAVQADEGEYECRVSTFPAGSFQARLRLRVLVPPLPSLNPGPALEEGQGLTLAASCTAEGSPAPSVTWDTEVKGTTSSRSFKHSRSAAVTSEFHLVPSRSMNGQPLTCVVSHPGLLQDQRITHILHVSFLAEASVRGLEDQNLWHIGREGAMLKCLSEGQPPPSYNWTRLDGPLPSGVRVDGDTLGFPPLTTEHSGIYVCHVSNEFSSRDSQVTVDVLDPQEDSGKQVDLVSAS
Assay: SPR (Biacore), biotinylated human Nectin-4 on streptavidin chip

Kd [nM]	Binder
3.31	{Ac-βAla}-[Sar][Sar][Sar][Sar][Sar][Sar][Sar][Sar][Sar][Sar]CP[1Nal][dCya]CM[Cya]DWSTP[Hyp]WC (linker 11-15-25 via TATA, Bicyclic peptide cyclised with TATA) [BCY8279]
1.3	Ac-CP[1Nal][dR]CMPDWSTP[Hyp]WC (linker 1-5-15 via TATA, Bicyclic peptide cyclised with TATA) [BCY8193]
1.62	Ac-CP[1Nal][dR]CM[hArg]DWSTPIWC (linker 1-5-15 via TATA, Bicyclic peptide cyclised with TATA) [BCY8215]
0.86	{Ac-βAla}-[Sar][Sar][Sar][Sar][Sar][Sar][Sar][Sar][Sar][Sar]CP[1Nal][dCya]CM[hArg]DWSTP[Hyp]WC (linker 11-15-25 via TATA, Bicyclic peptide cyclised with TATA) [BCY8276]
5.99	{Ac-βAla}-[Sar][Sar][Sar][Sar][Sar][Sar][Sar][Sar][Sar][Sar]CP[1Nal][dD]CM[Cya]DWSTP[Hyp]WC (linker 11-15-25 via TATA, Bicyclic peptide cyclised with TATA) [BCY8277]
47	CPF[dD]CM[hArg]NWSTPIWC (linker 1-5-15 via TATA, Bicyclic peptide cyclised with TATA) [BCY7793]
44.5	Ac-CPF[dD]CL[hArg]NWSTPPWC (linker 1-5-15 via TATA, Bicyclic peptide cyclised with TATA) [BCY8038]
0.61	Ac-CP[1Nal][dCya]CM[hArg]DWSTP[Hyp]WC (linker 1-5-15 via TATA, Bicyclic peptide cyclised with TATA) [BCY8163]
35.7	Ac-QKWCAPLSDYWCNRIC (linker 4-12-16 via TATA, Bicyclic peptide cyclised with TATA) [BCY7392]
2.66	{Ac-βAla}-[Sar][Sar][Sar][Sar][Sar]CP[1Nal][dD]CM[hArg]DWSTPIWC (linker 6-10-20 via TATA, Bicyclic peptide cyclised with TATA) [BCY8123]
1.71	Ac-CP[1Nal][dD]CM[hArg]NWSTPIWC (linker 1-5-15 via TATA, Bicyclic peptide cyclised with TATA) [BCY8030]
7.32	Ac-CP[1Nal][dD]CL[hArg]DWSTPIWC (linker 1-5-15 via TATA, Bicyclic peptide cyclised with TATA) [BCY8211]
1.9	Ac-CP[1Nal][dR]CM[Hyp]DWSTP[Hyp]WC (linker 1-5-15 via TATA, Bicyclic peptide cyclised with TATA) [BCY8194]
0.89	{Ac-βAla}-[Sar][Sar][Sar][Sar][Sar]CP[1Nal][dD]CM[hArg]DWSTP[Hyp]WC (linker 6-10-20 via TATA, Bicyclic peptide cyclised with TATA) [BCY8122]
1.95	Ac-CP[1Nal][dR]CL[hArg]DWSTP[Hyp]WC (linker 1-5-15 via TATA, Bicyclic peptide cyclised with TATA) [BCY8213]
1.06	Ac-CP[1Nal][dR]CM[hArg]NWSTP[Hyp]WC (linker 1-5-15 via TATA, Bicyclic peptide cyclised with TATA) [BCY8128]

Kd [nM]	Binder
0.69	Ac-CP[1Nal][dD]CM[hArg]NWSTP[Hyp]WC (linker 1-5-15 via TATA, Bicyclic peptide cyclised with TATA) [BCY8124]
0.52	Ac-CP[1Nal][dD]CM[hArg]HWSTP[Hyp]WC (linker 1-5-15 via TATA, Bicyclic peptide cyclised with TATA) [BCY8125]
0.54	Ac-CP[1Nal][dR]CL[hArg]HWSTP[Hyp]WC (linker 1-5-15 via TATA, Bicyclic peptide cyclised with TATA) [BCY8214]
0.67	{Ac-βAla}-[Sar][Sar][Sar][Sar][Sar]CP[1Nal][dD]CM[hArg]NWSTP[Hyp]WC (linker 6-10-20 via TATA, Bicyclic peptide cyclised with TATA) [BCY8120]
0.53	{Ac-βAla}-[Sar][Sar][Sar][Sar][Sar]CP[1Nal][dD]CM[hArg]HWSTP[Hyp]WC (linker 6-10-20 via TATA, Bicyclic peptide cyclised with TATA) [BCY8121]
0.87	Ac-CP[1Nal][dR]CM[hArg]HWSTP[Hyp]WC (linker 1-5-15 via TATA, Bicyclic peptide cyclised with TATA) [BCY8129]
2.42	Ac-CP[1Nal][dD]CL[hArg]DWSTP[Hyp]WC (linker 1-5-15 via TATA, Bicyclic peptide cyclised with TATA) [BCY8212]
1.84	Ac-CP[1Nal][dD]CM[hArg]DWSTPIWC (linker 1-5-15 via TATA, Bicyclic peptide cyclised with TATA) [BCY8127]
0.56	Ac-CP[1Nal][dR]CM[hArg]DWSTP[Hyp]WC (linker 1-5-15 via TATA, Bicyclic peptide cyclised with TATA) [BCY8184]
14.9	{Ac-βAla}-[Sar][Sar][Sar][Sar][Sar]CPF[dA]CM[hArg]NWSWPIWC (linker 6-10-20 via TATA, Bicyclic peptide cyclised with TATA) [BCY7559]
1380	Ac-CVTTSYDCWVTLGHCSRF (linker 1-8-15 via TATA, Bicyclic peptide cyclised with TATA) [BCY7393]
0.96	Ac-CP[1Nal][dD]CMPDWSTP[Hyp]WC (linker 1-5-15 via TATA, Bicyclic peptide cyclised with TATA) [BCY8182]
3.88	[βAla][Sar][Sar][Sar][Sar][Sar][Sar][Sar][Sar][Sar][Sar]CP[1Nal][dD]CMKDWSTP[Hyp]WC (linker 12-16-26 via TATA, Bicyclic peptide cyclised with TATA) [BCY8238]
1.81	Ac-CP[1Nal][dR]CM[Agb]DWSTP[Hyp]WC (linker 1-5-15 via TATA, Bicyclic peptide cyclised with TATA) [BCY8192]
59.8	Ac-CPFGCMKNWSWPIWCTNK (linker 1-5-15 via TATA, Bicyclic peptide cyclised with TATA; also called 80-09-02-T01-N011) [BCY7391]
40.3	Ac-CPFGCMKNWSWPIWC (linker 1-5-15 via TATA, Bicyclic peptide cyclised with TATA; also called 80-09-02-N008) [BCY7390]
